Data taken from patent US20230240988A1, “FLUID GEL COMPOSITIONS” (The University of Birmingham, priority 2020, published 2023).

Key:
[1] = Release assay of active agents from PEG-DA fluid gel (trans-well, UV/Vis); format: physicochemical; conditions: 3% v/v PEG-DA fluid gel (500 rpm), PBS 37° C., 5 hrs
Description: • Active amounts: […] • Standard concentrations of active in PBS were prepared. • Standards were pipetted into a quartz cuvette (1 mm pathlength). • […] spectroscopy was used to measure absorbance between 200 and 700 nm wavelength. • Curves were plotted and used to determine standard curves which were used to determine concentrations. • 0.5 ml PBS was added to the well of a 24 well plate. • The PBS was incubated at 37° C. to equilibrate. 0.1 ml of the fluid gel containing active was placed in a trans-well insert. • The trans-well insert was placed into a well containing PBS. • After a given time period the trans-well insert was removed and placed in a fresh well of PBS. • The release media was then removed and analysed using […] spectroscopy. Concentrations were derived from the standard curves and cumulative release plotted as a function of time.

fibrin gel = test: Matrix breakdown assay; format: biochemical; conditions: 60° C.; images at various timepoints
Description: • Add proteinase K (10 mg) to PBS to make a total volume of 1 ml. • Mix well on a vortex mixer until dissolved.
• Add 0.9 ml of 3% v/v PEG-DA fluid gel prepared according to Example 5.3 to an Eppendorf. • To each gel add 0.1 ml of active in PBS. • Mix well using a vortex mixer. • Refrigerate for 24 hours before testing.
0.5 ml of fibrin gel (8.5 mg/ml) was formed in the wells of a 24 well plate. • 0.5 ml of PBS was added to each well. • 0.1 ml of fluid gel containing active was added to a trans-well insert and placed above the fibrin gel. • Samples were incubated at 60° C. to activate the proteinase K. • Images were taken at various timepoints and compared to (a) the control wells containing only fibrin gel+PBS; and (b) wells containing fibrin gel+proteinase k (no fluid gel carrier).

B1: Proteinase K: extracellular matrix remodelling agent, proteinase (protein, UniProt P06873 106-384, looked up)
Proteinase K: AAQTNAPWGLARISSTSPGTSTYYYDESAGQGSCVYVIDTGIEASHPEFEGRAQMVKTYYYSSRDGNGHGTHCAGTVGSRTYGVAKKTQLFGVKVLDDNGSGQYSTIIAGMDFVASDKNNRNCPKGVVASLSLGGGYSSSVNSAAARLQSSGVMVAVAAGNNNADARNYSPASEPSVCTVGASDRYDRRSSFSNYGSVLDIFGPGTSILSTWIGGSTRSISGTSMATPHVAGLAAYLMTLGKTTAASACRYIADTANKGDLSNIPFGTVNLLAYNNYQA
[1]
  release of active agent from fluid gel: able to release
Fibrin gel
  fibrin gel break down: faster
